Reference: publication PMC4991212 (Cell, 2016)

Target: APC2 (cullin subunit of APC/C) (human, UniProt Q9UJX6 1-822)
Assay: cryo-EM structure

B1: UBE2C (C102A), catalytic Cys only version, in the multiubiquitination trap (enzyme, human, UniProt O00762 1-179, looked up)
chain: MASQNRDPAATSVAAARKGAEPSGGAARGPVGKRLQQELMTLMMSGDKGISAFPESDNLFKWVGTIHGAAGTVYEDLRYKLSLEFPSGYPYNAPTVKFLTPAYHPNVDTQGNICLDILKEKWSALYDVRTILLSIQSLLGEPNIDSPLNTHAAELWKNPTAFKKYLQETYSKQVTSQEP
modifications: active site Cys joined to the TMEA crosslinker
B1: binds.
